Targets include αR448fsβγ-ENaC (human) (UniProt P37088); αN232Qβγ-ENaC (human) (UniProt P37088); αN511Qβγ-ENaC (human) (UniProt P37088).
The target of test [1] is δ-hENaC expressed alone (human) (UniProt P51172).
Test [2] deals with γ-hENaC expressed alone (human) (UniProt P51170).
In test [3] the target is wild-type αβγ-hENaC (amiloride-sensitive epithelial sodium channel) (human) (UniProt P37088).
For test [4], the target named is α-hENaC expressed alone (human) (UniProt P37088).
Test [5] has as its target β-hENaC expressed alone (human) (UniProt P51168).
A further test addresses T1, αβγ-hENaC (Homo sapiens, UniProt P37088+P51168+P51170).
T1 construct: expressed in transfected cells; host or cells: HEK-293
T1 sequence (P37088 1-669): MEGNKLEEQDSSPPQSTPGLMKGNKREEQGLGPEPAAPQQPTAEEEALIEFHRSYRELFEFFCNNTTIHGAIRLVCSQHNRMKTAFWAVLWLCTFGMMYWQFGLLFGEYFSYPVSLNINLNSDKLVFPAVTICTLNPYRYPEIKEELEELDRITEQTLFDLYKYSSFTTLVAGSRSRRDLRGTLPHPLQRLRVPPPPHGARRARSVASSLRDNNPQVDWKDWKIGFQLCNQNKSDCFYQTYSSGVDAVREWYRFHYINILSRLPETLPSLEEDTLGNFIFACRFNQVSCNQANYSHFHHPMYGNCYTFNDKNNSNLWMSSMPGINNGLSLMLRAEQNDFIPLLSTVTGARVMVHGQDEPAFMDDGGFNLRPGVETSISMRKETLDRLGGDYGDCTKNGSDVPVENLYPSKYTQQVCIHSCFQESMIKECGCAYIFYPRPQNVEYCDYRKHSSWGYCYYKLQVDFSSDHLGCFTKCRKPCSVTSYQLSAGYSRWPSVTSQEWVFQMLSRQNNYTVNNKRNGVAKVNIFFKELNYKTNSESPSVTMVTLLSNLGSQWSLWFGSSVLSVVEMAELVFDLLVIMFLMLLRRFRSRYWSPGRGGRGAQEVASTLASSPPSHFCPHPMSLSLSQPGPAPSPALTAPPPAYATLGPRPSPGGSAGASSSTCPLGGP
T1 sequence (P51168 1-640 partner): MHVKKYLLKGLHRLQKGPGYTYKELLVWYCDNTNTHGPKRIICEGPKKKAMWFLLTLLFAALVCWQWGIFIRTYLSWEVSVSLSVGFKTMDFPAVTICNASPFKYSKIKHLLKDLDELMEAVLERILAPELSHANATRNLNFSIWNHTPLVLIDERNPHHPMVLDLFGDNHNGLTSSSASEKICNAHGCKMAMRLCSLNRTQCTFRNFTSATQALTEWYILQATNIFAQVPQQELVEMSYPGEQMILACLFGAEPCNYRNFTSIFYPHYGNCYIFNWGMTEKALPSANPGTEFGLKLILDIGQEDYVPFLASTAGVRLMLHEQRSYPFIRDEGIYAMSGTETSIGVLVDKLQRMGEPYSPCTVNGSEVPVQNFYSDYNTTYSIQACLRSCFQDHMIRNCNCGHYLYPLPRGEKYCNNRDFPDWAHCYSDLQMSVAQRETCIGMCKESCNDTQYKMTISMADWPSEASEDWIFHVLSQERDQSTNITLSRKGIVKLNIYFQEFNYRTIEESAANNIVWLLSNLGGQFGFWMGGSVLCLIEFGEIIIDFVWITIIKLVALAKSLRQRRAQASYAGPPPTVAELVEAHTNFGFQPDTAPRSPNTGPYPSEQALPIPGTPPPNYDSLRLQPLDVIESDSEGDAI
T1 sequence (P51170 1-649 partner): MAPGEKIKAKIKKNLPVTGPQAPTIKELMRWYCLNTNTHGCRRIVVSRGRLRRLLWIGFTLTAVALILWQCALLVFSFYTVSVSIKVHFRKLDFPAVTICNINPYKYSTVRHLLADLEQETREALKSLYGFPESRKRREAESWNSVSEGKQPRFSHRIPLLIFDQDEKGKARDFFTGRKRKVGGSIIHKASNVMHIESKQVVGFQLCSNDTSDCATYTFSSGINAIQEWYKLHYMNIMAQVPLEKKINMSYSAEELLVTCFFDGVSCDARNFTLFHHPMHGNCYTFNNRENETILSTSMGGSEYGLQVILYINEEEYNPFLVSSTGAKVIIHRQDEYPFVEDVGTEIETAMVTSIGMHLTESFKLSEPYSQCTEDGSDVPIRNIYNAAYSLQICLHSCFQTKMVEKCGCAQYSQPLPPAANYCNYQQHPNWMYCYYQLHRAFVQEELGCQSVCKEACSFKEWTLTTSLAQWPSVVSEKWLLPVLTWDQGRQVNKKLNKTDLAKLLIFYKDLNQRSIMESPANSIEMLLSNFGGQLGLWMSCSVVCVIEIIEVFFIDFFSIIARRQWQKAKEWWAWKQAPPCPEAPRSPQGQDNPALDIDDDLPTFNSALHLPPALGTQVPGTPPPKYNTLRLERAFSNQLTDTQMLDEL
Nature of the test: Whole-cell patch clamp, WT αβγ-hENaC. It counts as cell-based. On the procedure: Point mutations of α-, β-, γ- and δ-hENaC and PHA1B frameshift mutations of α-hENaC were prepared with the QuikChange Lightning Site-Directed Mutagenesis Kit (Agilent Technologies, CA, USA). Mutagenic primers were designed individually with the Primer Design Program provided on the producer’s website or for the frameshift mutations the same base changes as reported in patients (see Table 2) were performed. Primers were ordered from Sigma-Aldrich, Vienna, Austria.
(§1) HEK-293 cells were transfected 1 day after cell seeding using X-tremeGENE HP DNA transfection reagent (Roche Diagnostics, Mannheim, Germany) according to the manufacturer’s protocol. A set of WT or mutant αβγ- or δβγ-hENaC, or α-, β-, γ-, or δ-hENaC alone was used, and the ratio of DNA to transfection reagent was 1:3. The expression was highest 48–72 h after transfection.
(§2) Electrophysiological experiments were performed as described in detail by Shabbir et al. ([16]). […] Currents were recorded with the patch clamp method in the whole-cell mode. The chamber contained 1 ml of the bath solution of the following composition (in mM): 145 NaCl, 2.7 KCl, 1.8 CaCl2, 2 MgCl2, 5.5 glucose, and 10 HEPES, adjusted to pH 7.4 with 1 M NaOH solution. Micropipettes were pulled from thin-walled borosilicate glass capillaries (Harvard Apparatus, Holliston, MA, USA) with a DMZ Zeitz Puller to obtain electrode resistances ranging from 2 to 5 MΩ. The pipette solution contained (in millimolars): 135 potassium methane sulfonate, 10 KCl, 6 NaCl, 1 Mg2ATP, 2 Na3ATP, 10 HEPES, and 0.5 EGTA, adjusted to pH 7.2 with 1 M KOH solution. Chemicals for pipette and bathing solutions were supplied by Sigma-Aldrich (Vienna, Austria). Electrophysiological measurements were carried out with an Axopatch 200B patch clamp amplifier (Axon Instruments, CA, USA). Capacity transients were canceled, and series resistance was compensated. Whole-cell currents were filtered at 5 kHz and sampled at 10 kHz. Data acquisition and storage were processed directly to a PC equipped with pCLAMP 10.2 software (Axon Instruments, CA, USA). […]

Another test concerns the target T2, δ-hENaC (Homo sapiens, UniProt P51172).
T2 construct: expressed in transfected cells; host or cells: HEK-293
T2 sequence (P51172 1-638 isoform P51172-1): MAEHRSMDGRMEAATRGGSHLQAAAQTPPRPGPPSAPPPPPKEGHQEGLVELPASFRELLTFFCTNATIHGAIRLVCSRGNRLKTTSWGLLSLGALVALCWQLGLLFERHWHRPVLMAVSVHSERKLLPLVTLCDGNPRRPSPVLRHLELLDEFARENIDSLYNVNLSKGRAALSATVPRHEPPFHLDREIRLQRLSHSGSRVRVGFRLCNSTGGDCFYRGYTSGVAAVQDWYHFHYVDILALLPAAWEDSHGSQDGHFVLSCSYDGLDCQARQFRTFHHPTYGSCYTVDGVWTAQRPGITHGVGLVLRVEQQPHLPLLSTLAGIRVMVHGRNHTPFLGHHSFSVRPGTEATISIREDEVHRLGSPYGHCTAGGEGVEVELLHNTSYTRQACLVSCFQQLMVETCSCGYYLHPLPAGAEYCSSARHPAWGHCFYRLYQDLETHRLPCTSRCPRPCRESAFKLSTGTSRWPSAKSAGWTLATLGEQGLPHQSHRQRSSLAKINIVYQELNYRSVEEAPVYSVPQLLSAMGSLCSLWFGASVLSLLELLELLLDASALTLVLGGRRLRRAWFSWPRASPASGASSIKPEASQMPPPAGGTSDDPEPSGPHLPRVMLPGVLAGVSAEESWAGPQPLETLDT
The test can be described thus: Whole-cell patch clamp, δ-hENaC alone. The test is classed as cell-based. The conditions noted are these: TNF, mean ± S.E., n = 5, p < 0.001 vs solnatide. On the procedure:
as §1
as §2, with “USA).” for “USA). Capacity transients were canceled, and series resistance was compensated. Whole-cell currents were filtered at 5 kHz and sampled at 10 kHz. Data acquisition and storage were processed directly to a PC equipped with pCLAMP 10.2 software (Axon Instruments, CA, USA).”

For a further test, the target named is T3, α-hENaC (Homo sapiens, UniProt P37088).
T3 construct: expressed in transfected cells; host or cells: HEK-293
T3 sequence (P37088 1-669): T1 sequence (P37088 1-669)
The test can be described thus: Whole-cell patch clamp, α-hENaC alone. It counts as cell-based. Conditions: TNF, -100 mV, mean ± S.E., n = 5, p < 0.001 vs solnatide. On the procedure:
as §1
as §2, with “USA).” for “USA). Capacity transients were canceled, and series resistance was compensated. Whole-cell currents were filtered at 5 kHz and sampled at 10 kHz. Data acquisition and storage were processed directly to a PC equipped with pCLAMP 10.2 software (Axon Instruments, CA, USA).”
In general terms: The patch-clamp technique gives a direct electrical read-out from membranes.

For another test, the target named is T4, β-hENaC (Homo sapiens, UniProt P51168).
T4 construct: expressed in transfected cells; host or cells: HEK-293
T4 sequence (P51168 1-640): T1 sequence (P51168 1-640 partner)
Nature of the test: Whole-cell patch clamp, β-hENaC alone. It counts as cell-based. The conditions noted are these: TNF, mean ± S.E., n = 5. On the procedure:
as §1
as §2, with “USA).” for “USA). Capacity transients were canceled, and series resistance was compensated. Whole-cell currents were filtered at 5 kHz and sampled at 10 kHz. Data acquisition and storage were processed directly to a PC equipped with pCLAMP 10.2 software (Axon Instruments, CA, USA).”

As a reminder, the EC50 is the concentration that produces a half-maximal response. Low readings indicate higher potency in that assay, high ones lower potency in that assay.

Tumor necrosis factor (TNF) (ligand) showed a fold increase of current (TNF-induced/amiloride-sensitive current), whole-cell patch clamp, transfected HEK-293 cells in the test with αR448fsβγ-ENaC (human) of 3.5 fold. Moreover, the maximal TNF-induced current, whole-cell patch clamp, transfected HEK-293 cells amounted to 84.7 pA with αN232Qβγ-ENaC (human) and 50.7 pA in the test with αN511Qβγ-ENaC (human). Moreover, the EC50 of TNF for activating amiloride-sensitive Na+ current, whole-cell patch clamp at -100 mV, transfected HEK-293 cells was determined as 5 nM in test [1], 6.7 nM in [3], 4.2 nM in test [4] and 18.8 nM in [5]. Further, the maximal TNF-induced amiloride-sensitive Na+ current, whole-cell patch clamp at -100 mV, transfected HEK-293 cells in test [1] was determined as 27.8 pA; in test [2] it was 8 pA; in [3] it was 162 pA; in test [4], 48.1 pA; in test [5], 18.5 pA.

`N=C(N)NC(=O)c1nc(Cl)c(N)nc1N` [amiloride, reference compound]: the “Block of induced current by amiloride” value at αβγ-hENaC (10 µM amiloride, TNF- or solnatide-induced current) is listed as “blocked by 10 µM amiloride within a few pulses”.

Regarding “TNF: Tumor necrosis factor (CAS Registry Number 94948-59-1, Sigma-Aldrich, Austria)”, the EC50 with δ-hENaC stood at 5 ± 0.3 nM; with α-hENaC, 4.2 ± 1.9 nM; with αβγ-hENaC (TNF, amiloride-sensitive Na^+ current, αβγ-hENaC in HEK-293, whole-cell, -100 mV, 19–22°C, bath pH 7.4, cumulative addition, mean ± S.E., n = 5, p < 0.001 vs solnatide) it was 6.7 ± 2.1 nM; with β-hENaC, 18.8 ± 2.9 nM.

Values taken from article PMC5447021, “TNF Lectin-Like Domain Restores Epithelial Sodium Channel Function in Frameshift Mutants Associated with Pseudohypoaldosteronism Type 1B” (Frontiers in Immunology, 2017).
